Measurements taken from patent publication US10500249B2, “Compositions and methods for preventing or treating diseases, conditions, or processes characterized by aberrant fibroblast proliferation and extracellular matrix deposition” (MOERAE MATRIX, INC., priority 2014, dated 2019).

Legend:
Experiment in all cases: Kinase Profiling Assay
Assay type in all cases: biochemical
Conditions in all cases: 100 μM
[1] = molecular target: T1, JAK2 (h) (Homo sapiens, UniProt O60674)
T1 construct: purchased Millipore
T1 sequence (O60674 whole entry): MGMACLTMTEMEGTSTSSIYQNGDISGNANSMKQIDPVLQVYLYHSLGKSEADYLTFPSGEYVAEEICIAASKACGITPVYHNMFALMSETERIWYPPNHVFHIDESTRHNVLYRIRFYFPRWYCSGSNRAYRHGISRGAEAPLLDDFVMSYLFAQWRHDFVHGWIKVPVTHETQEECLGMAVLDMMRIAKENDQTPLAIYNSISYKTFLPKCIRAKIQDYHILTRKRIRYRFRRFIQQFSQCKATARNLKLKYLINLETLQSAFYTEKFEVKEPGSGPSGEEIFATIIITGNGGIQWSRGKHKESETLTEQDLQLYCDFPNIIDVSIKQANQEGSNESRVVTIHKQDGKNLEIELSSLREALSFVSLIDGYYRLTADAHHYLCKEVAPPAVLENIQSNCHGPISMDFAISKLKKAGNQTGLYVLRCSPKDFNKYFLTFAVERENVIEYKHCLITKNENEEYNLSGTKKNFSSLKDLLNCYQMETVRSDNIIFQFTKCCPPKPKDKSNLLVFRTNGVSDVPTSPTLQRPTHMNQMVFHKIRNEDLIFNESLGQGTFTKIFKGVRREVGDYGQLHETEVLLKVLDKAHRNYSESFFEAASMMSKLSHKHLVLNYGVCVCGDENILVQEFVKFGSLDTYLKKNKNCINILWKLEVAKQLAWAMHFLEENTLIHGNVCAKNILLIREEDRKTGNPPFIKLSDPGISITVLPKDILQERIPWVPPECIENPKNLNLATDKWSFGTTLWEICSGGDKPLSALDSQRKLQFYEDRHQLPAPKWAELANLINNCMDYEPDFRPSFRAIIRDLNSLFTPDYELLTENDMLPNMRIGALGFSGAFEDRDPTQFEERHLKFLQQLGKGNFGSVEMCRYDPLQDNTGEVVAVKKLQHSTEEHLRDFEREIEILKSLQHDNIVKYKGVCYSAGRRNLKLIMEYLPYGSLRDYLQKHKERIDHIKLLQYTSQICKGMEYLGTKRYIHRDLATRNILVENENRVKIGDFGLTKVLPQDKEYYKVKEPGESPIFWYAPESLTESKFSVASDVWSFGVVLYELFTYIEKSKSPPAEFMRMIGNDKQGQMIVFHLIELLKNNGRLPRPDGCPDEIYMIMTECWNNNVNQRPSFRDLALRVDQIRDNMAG
Outline: (§1)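 Kinase inhibition by MK2 inhibitory peptides was profiled radiometrically, with substrate phosphorylation from labeled ATP read by scintillation after capture on a charged filter. Values are relative to 100% activity and measured in duplicate.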

[2] = molecular target: T2, PDK1 (h) (Homo sapiens, UniProt O15530)
T2 construct: purchased Millipore
T2 sequence (O15530 1-556): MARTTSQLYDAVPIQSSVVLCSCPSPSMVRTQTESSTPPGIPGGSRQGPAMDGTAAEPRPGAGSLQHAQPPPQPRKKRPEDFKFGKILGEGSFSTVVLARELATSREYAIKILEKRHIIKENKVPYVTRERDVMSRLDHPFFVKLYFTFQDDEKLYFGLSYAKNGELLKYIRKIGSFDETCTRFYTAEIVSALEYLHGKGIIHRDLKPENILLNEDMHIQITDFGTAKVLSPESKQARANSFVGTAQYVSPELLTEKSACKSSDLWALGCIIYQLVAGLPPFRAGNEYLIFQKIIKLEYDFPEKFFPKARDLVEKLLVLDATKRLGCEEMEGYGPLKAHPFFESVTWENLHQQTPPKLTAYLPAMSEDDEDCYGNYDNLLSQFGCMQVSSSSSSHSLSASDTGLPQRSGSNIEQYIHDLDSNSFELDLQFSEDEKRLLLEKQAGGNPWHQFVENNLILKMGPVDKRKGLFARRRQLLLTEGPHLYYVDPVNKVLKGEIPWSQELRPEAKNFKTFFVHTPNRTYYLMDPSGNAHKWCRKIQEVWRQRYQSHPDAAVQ
Outline: as §1

[3] = molecular target: LOK (h) (Homo sapiens, UniProt O94804)
Sequence of LOK (h) (O94804 whole entry): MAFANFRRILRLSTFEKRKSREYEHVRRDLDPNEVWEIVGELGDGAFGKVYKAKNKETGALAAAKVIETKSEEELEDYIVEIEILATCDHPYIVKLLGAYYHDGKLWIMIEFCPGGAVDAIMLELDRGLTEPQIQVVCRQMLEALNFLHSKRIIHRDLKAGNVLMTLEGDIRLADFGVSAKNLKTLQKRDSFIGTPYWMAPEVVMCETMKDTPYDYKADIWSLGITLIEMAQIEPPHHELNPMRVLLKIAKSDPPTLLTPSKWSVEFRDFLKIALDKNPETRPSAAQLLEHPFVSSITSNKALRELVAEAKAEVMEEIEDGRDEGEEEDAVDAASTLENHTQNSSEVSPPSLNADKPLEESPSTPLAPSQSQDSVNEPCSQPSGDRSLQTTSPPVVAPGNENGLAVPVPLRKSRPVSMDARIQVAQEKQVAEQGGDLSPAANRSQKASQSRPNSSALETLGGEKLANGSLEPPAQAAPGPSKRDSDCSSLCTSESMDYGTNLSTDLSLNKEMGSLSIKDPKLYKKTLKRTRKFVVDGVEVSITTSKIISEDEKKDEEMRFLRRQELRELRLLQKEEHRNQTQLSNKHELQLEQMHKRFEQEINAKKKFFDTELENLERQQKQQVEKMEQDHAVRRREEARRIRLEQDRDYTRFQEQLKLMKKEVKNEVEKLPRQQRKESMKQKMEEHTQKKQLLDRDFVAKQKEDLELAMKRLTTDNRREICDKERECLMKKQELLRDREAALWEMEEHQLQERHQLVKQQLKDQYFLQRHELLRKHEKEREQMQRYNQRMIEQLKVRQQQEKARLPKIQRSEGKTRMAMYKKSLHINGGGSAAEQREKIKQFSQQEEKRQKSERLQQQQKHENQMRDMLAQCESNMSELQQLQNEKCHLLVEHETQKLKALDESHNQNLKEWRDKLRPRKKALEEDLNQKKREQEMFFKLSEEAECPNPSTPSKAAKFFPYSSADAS
Outline: as §1

[4] = molecular target: T3, EphB1 (h) (Homo sapiens, UniProt P54762)
T3 sequence (P54762 18-984): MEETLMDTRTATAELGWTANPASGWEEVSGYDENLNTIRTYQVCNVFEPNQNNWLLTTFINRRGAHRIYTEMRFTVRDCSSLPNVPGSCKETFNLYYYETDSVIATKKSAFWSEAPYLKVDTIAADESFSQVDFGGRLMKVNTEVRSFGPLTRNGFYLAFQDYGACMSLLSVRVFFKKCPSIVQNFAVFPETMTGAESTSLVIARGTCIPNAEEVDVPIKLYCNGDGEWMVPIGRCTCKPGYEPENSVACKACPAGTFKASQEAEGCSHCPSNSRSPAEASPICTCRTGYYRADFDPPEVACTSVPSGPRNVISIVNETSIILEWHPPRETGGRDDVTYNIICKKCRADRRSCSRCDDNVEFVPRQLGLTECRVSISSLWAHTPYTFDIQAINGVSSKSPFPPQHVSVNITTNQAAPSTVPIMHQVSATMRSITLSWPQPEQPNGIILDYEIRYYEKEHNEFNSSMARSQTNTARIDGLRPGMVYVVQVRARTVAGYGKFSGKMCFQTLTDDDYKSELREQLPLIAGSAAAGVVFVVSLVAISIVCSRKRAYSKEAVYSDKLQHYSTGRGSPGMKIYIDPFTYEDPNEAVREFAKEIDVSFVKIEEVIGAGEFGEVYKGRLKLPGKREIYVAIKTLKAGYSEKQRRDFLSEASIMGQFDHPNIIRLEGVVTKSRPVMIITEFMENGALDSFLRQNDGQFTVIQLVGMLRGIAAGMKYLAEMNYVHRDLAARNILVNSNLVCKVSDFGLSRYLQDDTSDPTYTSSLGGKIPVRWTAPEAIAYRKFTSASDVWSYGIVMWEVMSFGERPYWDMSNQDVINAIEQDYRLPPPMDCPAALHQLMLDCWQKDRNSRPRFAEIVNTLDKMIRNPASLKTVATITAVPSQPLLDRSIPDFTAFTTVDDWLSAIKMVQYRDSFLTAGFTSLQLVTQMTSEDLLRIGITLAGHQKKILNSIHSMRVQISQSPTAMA
Outline: as §1

[5] = molecular target: T4, mTOR/FKBP12 (h) (Homo sapiens, UniProt P42345)
T4 construct: purchased Millipore
T4 sequence (P42345 1362-2549 limits assumed): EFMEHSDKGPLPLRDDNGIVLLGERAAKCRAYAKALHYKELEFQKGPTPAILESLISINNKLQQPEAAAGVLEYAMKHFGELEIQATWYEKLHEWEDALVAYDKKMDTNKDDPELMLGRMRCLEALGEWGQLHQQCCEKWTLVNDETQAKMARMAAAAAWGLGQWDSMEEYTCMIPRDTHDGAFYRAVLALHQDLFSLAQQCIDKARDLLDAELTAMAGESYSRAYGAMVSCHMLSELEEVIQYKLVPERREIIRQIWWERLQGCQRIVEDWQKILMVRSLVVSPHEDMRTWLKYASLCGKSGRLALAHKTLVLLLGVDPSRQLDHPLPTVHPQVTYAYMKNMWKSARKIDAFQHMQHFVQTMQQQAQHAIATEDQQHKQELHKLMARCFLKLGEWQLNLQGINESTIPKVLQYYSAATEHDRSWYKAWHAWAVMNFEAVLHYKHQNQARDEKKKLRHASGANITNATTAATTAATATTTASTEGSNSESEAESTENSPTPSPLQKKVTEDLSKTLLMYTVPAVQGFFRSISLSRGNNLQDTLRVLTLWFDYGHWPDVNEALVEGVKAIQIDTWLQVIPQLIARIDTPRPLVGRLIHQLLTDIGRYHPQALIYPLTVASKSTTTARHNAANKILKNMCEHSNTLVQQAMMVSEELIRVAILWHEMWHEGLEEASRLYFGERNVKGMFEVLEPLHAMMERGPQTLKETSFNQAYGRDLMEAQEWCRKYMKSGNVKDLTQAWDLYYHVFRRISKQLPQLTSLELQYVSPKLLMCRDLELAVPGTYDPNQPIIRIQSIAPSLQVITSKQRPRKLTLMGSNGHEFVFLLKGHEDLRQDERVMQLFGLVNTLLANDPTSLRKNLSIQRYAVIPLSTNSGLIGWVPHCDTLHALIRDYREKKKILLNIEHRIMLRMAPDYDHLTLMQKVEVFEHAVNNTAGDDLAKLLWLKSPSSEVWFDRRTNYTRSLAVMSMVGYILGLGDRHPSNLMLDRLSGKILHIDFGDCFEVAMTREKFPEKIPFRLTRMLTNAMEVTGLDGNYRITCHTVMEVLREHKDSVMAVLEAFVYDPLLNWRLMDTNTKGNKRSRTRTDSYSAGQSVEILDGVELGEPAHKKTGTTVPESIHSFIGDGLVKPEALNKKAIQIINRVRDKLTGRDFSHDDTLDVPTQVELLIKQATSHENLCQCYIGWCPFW
Outline: as §1

[6] = molecular target: T5, PKG1α (h) (Homo sapiens, UniProt Q13976)
T5 sequence (Q13976 1-671): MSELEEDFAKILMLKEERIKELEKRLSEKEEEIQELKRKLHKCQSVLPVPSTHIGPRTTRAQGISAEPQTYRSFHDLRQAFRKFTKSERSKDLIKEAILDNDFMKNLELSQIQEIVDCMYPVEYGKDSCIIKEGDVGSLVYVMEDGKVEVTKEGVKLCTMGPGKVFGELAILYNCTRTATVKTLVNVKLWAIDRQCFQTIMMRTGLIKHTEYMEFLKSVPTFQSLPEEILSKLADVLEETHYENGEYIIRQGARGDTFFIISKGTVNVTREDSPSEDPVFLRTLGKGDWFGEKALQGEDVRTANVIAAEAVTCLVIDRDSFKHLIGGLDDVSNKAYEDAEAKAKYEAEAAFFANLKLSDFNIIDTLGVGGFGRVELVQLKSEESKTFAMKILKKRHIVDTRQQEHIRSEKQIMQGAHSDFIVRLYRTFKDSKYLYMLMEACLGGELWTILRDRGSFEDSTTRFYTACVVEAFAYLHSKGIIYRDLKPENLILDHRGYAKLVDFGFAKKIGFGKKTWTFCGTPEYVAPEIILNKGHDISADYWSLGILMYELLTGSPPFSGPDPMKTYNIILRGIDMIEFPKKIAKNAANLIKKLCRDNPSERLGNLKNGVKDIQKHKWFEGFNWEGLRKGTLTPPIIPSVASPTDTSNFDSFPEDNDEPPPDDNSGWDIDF
Outline: as §1

Sequence	% activity [1]	% activity [2]	% activity [3]	% activity [4]	% activity [5]	% activity [6]
YARAAARQARAKALNRQLGVA (Mammalian) [MMI-0200]	131%	143%	67%	95%	118%	70%
HRRIKAWLKKIKALARQLGVAA (Mammalian) [MMI-0500]	49%	178%	7%	37%	140%	25%
FAKLAARLYRKALARQLGVAA [MMI-0300]	133%	135%	37%	44%	145%	64%
KAFAKLAARLYRKALARQLGVAA [MMI-0400]	–	159%	18%	58%	125%	58%
